{"source": "patent US20230407276", "about": "“CRISPR-CAS EFFECTOR POLYPEPTIDES AND METHODS OF USE THEREOF” (The Regents of the University of California, published 2023)", "molecules": {"B1": {"name": "sgRNAv1-2 ; dsDNA target 40 bp (ssRNA ; dsDNA)", "RNA": "UGGCGCGUUUAUUCCAUUACUUUGGAGCCAGUCCCAGCGACUAUGUCGUAUGGACGAAGCGCUUAUUUAUCGGAGAGAAACCGAUAAGUAAAACGCAUCAAAGUCCUGCAGCAGAAAAUCAAAG", "DNA 1": "ATCGTTATACTTTGATTTTCTGCTGCAGGATGAAATCCCG", "DNA 2": "CGGGATTTCATCCTGCAGCAGAAAATCAAAGTATAACGAT"}, "B2": {"name": "sgRNAv2-2 ; dsDNA target 40 bp (ssRNA ; dsDNA)", "RNA": "UGGCGCUUUUAUCUCAUUACUUUGAGAGCCAUCACCAGCGACUAUGUCGUAUGGGUAAAGCGCUUAUUUAUCGGAGAAACCGAUAAAUAAGAAGCAUCAAAGUCCUGCAGCAGAAAAUCAAAG", "DNA 1": "B1 DNA 1", "DNA 2": "B1 DNA 2"}, "B3": {"name": "sgRNAv2-3 ; dsDNA target 40 bp (ssRNA ; dsDNA)", "RNA": "UACUGGCGCUUUUAUCUCAUUACUUUGAGAGCCAUCACCAGCGACUAUGUCGUAUGGGUAAAGCGCUUAUUUAUCGGAGAAACCGAUAAAUAAGAAGCAUCAAAGUCCUGCAGCAGAAAAUCAAAG", "DNA 1": "B1 DNA 1", "DNA 2": "B1 DNA 2"}}, "key": {"[1]": {"test_system": "DpbCasX dH2 Helical-II domain deleted", "assay": "cleavage_in_vitro", "conditions": "NTS; 37 C, Mg2+; TS value 0.008223; unit assumed"}, "[2]": {"test_system": "PlmCasX dH2 Helical-II domain deleted", "assay": "cleavage_in_vitro", "conditions": "NTS; 37 C, Mg2+; TS value 1.741e-5; unit assumed"}, "DpbCasX (DpbCasXv1)": {"molecular_target": "T1, DpbCasX (DpbCasXv1)", "T1 chain": "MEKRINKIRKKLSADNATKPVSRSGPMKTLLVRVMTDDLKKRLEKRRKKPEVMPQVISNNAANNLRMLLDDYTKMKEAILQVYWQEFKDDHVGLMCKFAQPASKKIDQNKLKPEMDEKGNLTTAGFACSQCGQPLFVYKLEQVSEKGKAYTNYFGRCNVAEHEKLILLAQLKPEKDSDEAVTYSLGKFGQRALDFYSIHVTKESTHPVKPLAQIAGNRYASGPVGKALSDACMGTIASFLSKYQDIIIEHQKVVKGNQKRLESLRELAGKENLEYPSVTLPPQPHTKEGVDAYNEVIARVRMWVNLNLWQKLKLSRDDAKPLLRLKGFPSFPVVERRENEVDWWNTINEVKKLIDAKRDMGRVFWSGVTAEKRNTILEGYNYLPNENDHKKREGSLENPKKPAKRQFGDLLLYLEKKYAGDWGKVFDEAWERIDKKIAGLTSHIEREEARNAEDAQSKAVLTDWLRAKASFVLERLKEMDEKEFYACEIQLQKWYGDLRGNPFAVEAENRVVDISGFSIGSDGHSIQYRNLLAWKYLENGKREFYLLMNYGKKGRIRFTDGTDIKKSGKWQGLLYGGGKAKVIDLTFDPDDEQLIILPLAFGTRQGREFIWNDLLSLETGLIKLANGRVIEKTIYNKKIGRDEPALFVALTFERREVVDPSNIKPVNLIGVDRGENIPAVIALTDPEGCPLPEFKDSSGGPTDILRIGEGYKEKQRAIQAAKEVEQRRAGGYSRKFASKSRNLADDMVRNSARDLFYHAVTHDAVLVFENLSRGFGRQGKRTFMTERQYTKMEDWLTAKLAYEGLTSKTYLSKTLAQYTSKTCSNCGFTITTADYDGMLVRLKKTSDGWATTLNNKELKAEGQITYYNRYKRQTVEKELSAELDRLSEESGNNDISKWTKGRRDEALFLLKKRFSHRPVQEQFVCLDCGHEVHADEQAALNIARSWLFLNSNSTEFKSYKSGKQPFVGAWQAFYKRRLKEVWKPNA", "assay": "cleavage_in_vitro; NTS; 37 C, Mg2+", "conditions": "label: 5'-32P", "source_text": "(§1) FIG. 14A-14G. Updated design of the CasX sgRNA. […] The coverage axis denotes the number of sequencing reads. The abscissa denotes the genome sequence of the hypothetical tracrRNA region. (B) The structural details for sgRNAv1. The additional U at the 5′ end was hypothetically modeled in the top panel. The structural details of the G30-C54 base-paring region in sgRNAv1 are also shown in the bottom panel. […] The sgRNAv1-2 architecture is modeled based on sgRNAv1. The potential base-pairing between the additional 5′ U and A29 is labeled with a dashed line. The Helical-II domain was modeled to indicate the interaction interface with the sgRNA scaffold stem. (D) In vitro dsDNA cleavage activity comparison among different sgRNAs by DpbCasX and PlmCasX. The NTS was ³²P labeled on the 5′ end. (E) Cleavage kinetics analysis was based on the NTS band density from the cleaved fractions compared to the input NTS band density at the reaction time of 0 min (n=3, mean±s.d.) (DpbCasX-v2 from FIG. 15A). The fractions were collected from 0 min to 6 hrs. […] (F) The hypothetical secondary architectures of sgRNAv2 designs. […] The fractions were collected at 0 min, 10 mins, 20 mins, 40 mins, 1 hr, 2 hrs, 4 hrs and 6 hrs, respectively. OC/N indicates the open-circle or nicked plasmids, L indicates the linearized plasmids and SC indicates the super-coiled plasmids (n=3, representative gel shown)."}, "PlmCasX (PlmCasXv1)": {"molecular_target": "T2, PlmCasX (PlmCasXv1)", "T2 chain": "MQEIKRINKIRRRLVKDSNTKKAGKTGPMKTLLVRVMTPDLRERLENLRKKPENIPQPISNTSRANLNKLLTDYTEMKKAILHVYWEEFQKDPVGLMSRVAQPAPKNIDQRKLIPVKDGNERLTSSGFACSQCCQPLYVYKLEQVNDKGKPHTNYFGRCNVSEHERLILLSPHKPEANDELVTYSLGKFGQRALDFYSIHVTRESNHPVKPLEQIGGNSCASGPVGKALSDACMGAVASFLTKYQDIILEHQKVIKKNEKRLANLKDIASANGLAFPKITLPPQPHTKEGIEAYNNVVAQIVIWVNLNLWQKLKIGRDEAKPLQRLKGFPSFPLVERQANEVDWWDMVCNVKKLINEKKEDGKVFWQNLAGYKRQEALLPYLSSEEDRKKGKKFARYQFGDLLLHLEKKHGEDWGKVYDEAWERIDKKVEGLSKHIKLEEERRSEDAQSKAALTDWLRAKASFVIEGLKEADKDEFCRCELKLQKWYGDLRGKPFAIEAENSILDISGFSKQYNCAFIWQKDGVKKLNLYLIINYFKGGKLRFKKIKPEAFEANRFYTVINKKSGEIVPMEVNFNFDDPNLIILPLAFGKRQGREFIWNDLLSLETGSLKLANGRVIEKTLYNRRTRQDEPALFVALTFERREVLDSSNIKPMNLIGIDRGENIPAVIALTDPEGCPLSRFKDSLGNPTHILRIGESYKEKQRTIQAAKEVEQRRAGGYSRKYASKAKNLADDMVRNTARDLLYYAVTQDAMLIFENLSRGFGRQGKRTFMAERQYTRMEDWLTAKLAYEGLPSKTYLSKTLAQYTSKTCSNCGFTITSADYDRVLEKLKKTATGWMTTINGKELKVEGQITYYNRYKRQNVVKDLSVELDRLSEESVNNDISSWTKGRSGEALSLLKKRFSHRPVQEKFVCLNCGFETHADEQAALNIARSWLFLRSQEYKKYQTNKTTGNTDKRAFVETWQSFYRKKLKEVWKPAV", "assay": "cleavage_in_vitro; NTS; 37 C, Mg2+", "conditions": "label: 5'-32P", "source_text": "as §1"}}}
{"molecule": "GGCGCGUUUAUUCCAUUACUUUGGAGCCAGUCCCAGCGACUAUGUCGUAUGGACGAAGCGCUUAUUUAUCGGAGAGAAACCGAUAAGUAAAACGCAUCAAAGUCCUGCAGCAGAAAAUCAAA / ATCGTTATACTTTGATTTTCTGCTGCAGGATGAAATCCCG / CGGGATTTCATCCTGCAGCAGAAAATCAAAGTATAACGAT [sgRNAv1 ; dsDNA target 40 bp]", "values": [{"measurement": "activity", "setting": "[1]", "value": 0.00671, "unit": "min⁻¹"}, {"measurement": "activity", "setting": "[2]", "value": 0.00268, "unit": "min⁻¹"}]}
{"molecule": "B1", "values": [{"measurement": "activity", "setting": "DpbCasX (DpbCasXv1)", "value": "0.0109 k (unit not stated; min-1 inferred)"}]}
{"molecule": "B2", "values": [{"measurement": "activity", "setting": "PlmCasX (PlmCasXv1)", "value": "0.00919 k (unit not stated; min-1 inferred)"}]}
{"molecule": "B3", "values": [{"measurement": "activity", "setting": "PlmCasX (PlmCasXv1)", "value": "0.0217 k (unit not stated; min-1 inferred)"}]}
